Assay results taken from patent US20110009597A1, “RECOMBINANT GANODERMA LUCIDIUM IMMUNOMODULATORY PROTEIN (rLZ-8) AND USES THEREOF” (priority 2008, published 2011).

How the values were obtained:
K562 = experiment: PI single stained flow cytometry, apoptosis of K562; format: cell-based
Description: Fluorescence microscope, model Leica ASLMD, K562, NB4. rLZ-8 is classified into high, medium and low three-dose groups respectively, now we prepare them with IMDM culture medium containing 2% FCS into the preparation of 2.5 μg·ml^−1, 0.5 μg/ml, 0.1 μg·ml^−1. […] (PI) 50 μg·ml ^−1.
Establish K562 as the normal control group, rLZ-8 low-dose group (0.1 μg·ml^−1), rLZ-8 medium dose group (0.5 μg·ml^−1), rLZ-8 high-dose group, (2.5 μg·ml^−1); set NB4 as the normal control group, rLZ-8 low-dose group (0.1 μg·ml^−1), rLZ-8 medium dose group (0.5 μg·ml^−1), rLZ-8 high-dose group, (2.5 μg·ml^−1).
Mix K562 and NB4 cells into 24-orifice plate respectively, and supply rLZ-8 in different concentrates, 1 ml/orifice, set 3-orifice multipunches for each group. Put them in 37° C., 5% CO2 incubator for 24 h, collect the cells of each concentrate, PBS washes twice and regulates the cell density to 1×10^6/ml, 70% ice ethanol fixation, adjusts to −20° C. and stays overnight. Wash the cells with PBS twice after fixing the cells, add PI (end density 50 μg·ml^−1) for room temperature and lucifuged hatching 10 min, 1000 r·min^−1 centrifuge 5 min, clear supernatant with disposable 400μ. IPBS re-suspension precipitation. And test on computer in 1 h.

[1] = tested on: mouse peritoneal H22 tumor cells; experiment: H22 ascites tumor inhibition experiment; format: in vivo, Mice
Description: Mouse hepatoma cell strain H22, offered by our laboratory.
Treatment after 24 h of vaccination. […] Daily weighing, observe the weight changes of mice, drawing weight growth curves.

WBC [2] = experiment: Prevention of radiation leucopenia model of mice, WBC; format: in vivo; design: unit not given here; conditions: for WBC, 5th day (rLZ-8): 5th day of administration before radiation; for WBC, 5th day / WBC, 7th day: after 7.5 Gy γ-ray
Description: rLZ-8 preparation of sterile saline. Divide them into 5 μg·kg^−1, 2.5 μg·kg^−1, 1.25 μg·kg^−1, 0.62 μg·kg^−1 dose groups. 0.2 ml/vial.
Genlei™ Scimax™ [Recombinant human granulocyte colony-stimulating factor injection (rhG-CSF)], production lot: 20060403; 150 μg/vial is prepared with sterile normal saline into the preparation of 3.2 μg·kg^−1, 0.2 ml/vial.
(§1) The mice were irradiated by 7.5 Gy γ-ray (180 mV, 15 mA) and then divided into seven groups (n=10): (A) negative control; (B) 5 μg·kg−1 dose; (C) 2.5 μg·kg−1 dose; (D) 1.25 μg·kg−1 dose; (E) 0.62 μg·kg−1 dose; (F) positive control (Genlei™ Scimax™); (G) model group. Before modeling 5 days, mice in each group were administered with Genlei™ Scimax™ and rLZ-8 for 5 days, on the 5th day, mice were radiated, for 5 days, and on the 7th day, drew blood from tail, tested the number of WBC, weight spleen, calculated index of spleen.

WBC [3] = experiment: Treatment of radiation leucopenia model of mice, WBC; format: in vivo; design: unit not given here; conditions: 7.5 Gy γ-ray
Description: (§2) rLZ-8 preparation of sterile saline. Divide them into 5 ∞g·kg^−1, 2.5 μg·kg^−1, 1.25 μg·kg^−1, 0.62 μg·kg^−1 dose groups. 0.2 ml/vial.
(§3) Genlei™ Scimax™ [Recombinant human granulocyte colony-stimulating factor injection (rhG-CSF)], production lot: 20060403; 150m/vial is prepared with sterile normal saline into the preparation of 3.2 μg·kg^−1, 0.2 ml/vial.
as §1, with “group. Together with modeling,” for “group. Before modeling 5 days,”, “for 9” for “for 5”, “days,” for “days, on the 5th day, mice were radiated, for 5 days, and on the 7th day,”

spleen = experiment: Colony forming unit-spleen and spleen index in radiation model of mice; format: in vivo
Description: as §2, §3
as §1, with “group. Together with modeling,” for “group. Before modeling 5 days,”, “for 9” for “for 5”, “days,” for “days, on the 5th day, mice were radiated, for 5 days, and on the 7th day,”

human erythrocyte = format: cell-based
Description: rLZ-8 prepares 5% of glucose solution into the preparation of 1 mg·ml^−1; blood cell suspension preparation: human blood 4 ml, 1000 r/min centrifugal 10 min, clears supernatant. […] Prepare the obtained erythrocyte with 5% glucose solution into 2% suspension for experiment.
Get 28 clean test tubes and number them, No. 1-5 for rLZ-8 drug group, No.6 for negative control group (5% glucose solution), No. 7 for positive control tube (distilled water), and a total of 4 parallel comparison tubes. By supplying 2% erythrocyte suspension, 5% glucose or distilled water in turn, shaking, put them into incubators 37° C.±0.5° C. immediately for incubation. Observe them every 15 min, 1 h after observe them once for 3 hours. Finishing the observation, put all the solution from the tubes into centrifugal drying tubes, 1500 r, 25 min. Clear the supernatant, read the blank distilled water tube for OD value to calculate the rate of hemolysis.

B1: rLZ-8: Recombinant Ganoderma Lucidum Immune Regulatory Protein expressed in Pichia pastoris (protein, UniProt P14945 2-111, looked up)
Immunomodulatory protein Ling …: SDTALIFRLAWDVKKLSFDYTPNWGRGNPNNFIDTVTFPKVLTDKAYTYRVAVSGRNLGVKPSYAVESDGSQKVNFLEYNSGYGIADTNTIQVFVVDPDTNNDFIIAQWN
- Apoptosis rate (K562; K562, rLZ-8 0.1 μg·ml^−1, 24 h): 16.43%
- Apoptosis rate (K562; K562, rLZ-8 0.5 μg·ml^−1, 24 h): 17.91%
- Apoptosis rate (K562; K562, rLZ-8 2.5 μg·ml^−1, 24 h): 21.57%
- growth of peritoneal H22 tumor cells (body weight curve) ([1]; rLZ-8 0.25-1 mg·kg^−1 tail venous injection, 10 days): inhibited the mouse peritoneal H22 tumor cells growth
- survival of H22 ascites mice ([1]; rLZ-8 groups vs negative control group): survive longer than the negative control group
- WBC, 5th day (rLZ-8) (WBC [2]; rLZ-8 0.62 μg·kg^−1): 10.7 ± 0.45
- WBC, 5th day (WBC [2]; rLZ-8 0.62 μg·kg^−1): 0.16 ± 0.31
- WBC, 7th day (WBC [2]; rLZ-8 0.62 μg·kg^−1): 0.40 ± 0.12
- WBC, 5th day (rLZ-8) (WBC [2]; rLZ-8 1.25 μg·kg^−1): 12.5 ± 0.45
- WBC, 5th day (WBC [2]; rLZ-8 1.25 μg·kg^−1): 0.25 ± 0.11
- WBC, 7th day (WBC [2]; rLZ-8 1.25 μg·kg^−1): 0.46 ± 0.11
- WBC, 5th day (rLZ-8) (WBC [2]; rLZ-8 2.5 μg·kg^−1): 12.8 ± 0.54
- WBC, 5th day (WBC [2]; rLZ-8 2.5 μg·kg^−1): 0.32 ± 0.15
- WBC, 7th day (WBC [2]; rLZ-8 2.5 μg·kg^−1): 0.45 ± 0.20
- WBC, 5th day (rLZ-8) (WBC [2]; rLZ-8 5 μg·kg^−1): 19.5 ± 0.32
- WBC, 5th day (WBC [2]; rLZ-8 5 μg·kg^−1): 0.32 ± 0.18
- WBC, 7th day (WBC [2]; rLZ-8 5 μg·kg^−1): 0.53 ± 0.35
- WBC, 5th day (WBC [3]; rLZ-8 0.62 μg·kg^−1): 0.73 ± 0.43
- WBC, 7th day (WBC [3]; rLZ-8 0.62 μg·kg^−1): 0.26 ± 0.43
- WBC, 9th day (WBC [3]; rLZ-8 0.62 μg·kg^−1): 0.64 ± 0.01
- WBC, 5th day (WBC [3]; rLZ-8 1.25 μg·kg^−1): 0.82 ± 0.45
- WBC, 7th day (WBC [3]; rLZ-8 1.25 μg·kg^−1): 0.65 ± 0.45
- WBC, 9th day (WBC [3]; rLZ-8 1.25 μg·kg^−1): 0.70 ± 0.12
- WBC, 5th day (WBC [3]; rLZ-8 2.50 μg·kg^−1): 0.69 ± 0.54
- WBC, 7th day (WBC [3]; rLZ-8 2.50 μg·kg^−1): 0.56 ± 0.54
- WBC, 9th day (WBC [3]; rLZ-8 2.50 μg·kg^−1): 0.54 ± 0.13
- WBC, 5th day (WBC [3]; rLZ-8 5 μg·kg^−1): 0.84 ± 0.32
- WBC, 7th day (WBC [3]; rLZ-8 5 μg·kg^−1): 0.31 ± 0.32
- WBC, 9th day (WBC [3]; rLZ-8 5 μg·kg^−1): 0.90 ± 0.14
- colony forming unit-spleen number (spleen; rLZ-8 0.62 μg·kg^−1): 8.9 ± 0.41
- growth rate (spleen; rLZ-8 0.62 μg·kg^−1): 50%
- index (spleen) (spleen; rLZ-8 0.62 μg·kg^−1): 0.50 ± 0.10
- colony forming unit-spleen number (spleen; rLZ-8 1.25 μg·kg^−1): 6.3 ± 0.21
- growth rate (spleen; rLZ-8 1.25 μg·kg^−1): 30%
- index (spleen) (spleen; rLZ-8 1.25 μg·kg^−1): 0.24 ± 0.13
- colony forming unit-spleen number (spleen; rLZ-8 2.50 μg·kg^−1): 14.3 ± 0.03
- growth rate (spleen; rLZ-8 2.50 μg·kg^−1): 69%
- index (spleen) (spleen; rLZ-8 2.50 μg·kg^−1): 0.52 ± 0.12
- colony forming unit-spleen number (spleen; rLZ-8 5 μg·kg^−1): 9.7 ± 0.16
- growth rate (spleen; rLZ-8 5 μg·kg^−1): 54%
- index (spleen) (spleen; rLZ-8 5 μg·kg^−1): 0.22 ± 0.09
- hmolytic rate (human erythrocyte): < 5%
